# Data published in patent US20220034884A1 (GOVERNMENT OF THE UNITED STATES OF AMERICA AS REPRESENTED …, published 2022).
# Biological target: T1, C-terminal GFP-tagged ACE2 fusion protein stably expressed on HEK293T cells (ACE2-GFP HEK293T) (UniProt Q9BYF1 18-805)
# T1 construct: also called ACE2-GFP HEK293T clone 2; ACE2-GFP HEK293T clone 1
# Assay: live-cell confocal imaging of ACE2-GFP HEK293T cells
# T1 sequence (Q9BYF1 18-805): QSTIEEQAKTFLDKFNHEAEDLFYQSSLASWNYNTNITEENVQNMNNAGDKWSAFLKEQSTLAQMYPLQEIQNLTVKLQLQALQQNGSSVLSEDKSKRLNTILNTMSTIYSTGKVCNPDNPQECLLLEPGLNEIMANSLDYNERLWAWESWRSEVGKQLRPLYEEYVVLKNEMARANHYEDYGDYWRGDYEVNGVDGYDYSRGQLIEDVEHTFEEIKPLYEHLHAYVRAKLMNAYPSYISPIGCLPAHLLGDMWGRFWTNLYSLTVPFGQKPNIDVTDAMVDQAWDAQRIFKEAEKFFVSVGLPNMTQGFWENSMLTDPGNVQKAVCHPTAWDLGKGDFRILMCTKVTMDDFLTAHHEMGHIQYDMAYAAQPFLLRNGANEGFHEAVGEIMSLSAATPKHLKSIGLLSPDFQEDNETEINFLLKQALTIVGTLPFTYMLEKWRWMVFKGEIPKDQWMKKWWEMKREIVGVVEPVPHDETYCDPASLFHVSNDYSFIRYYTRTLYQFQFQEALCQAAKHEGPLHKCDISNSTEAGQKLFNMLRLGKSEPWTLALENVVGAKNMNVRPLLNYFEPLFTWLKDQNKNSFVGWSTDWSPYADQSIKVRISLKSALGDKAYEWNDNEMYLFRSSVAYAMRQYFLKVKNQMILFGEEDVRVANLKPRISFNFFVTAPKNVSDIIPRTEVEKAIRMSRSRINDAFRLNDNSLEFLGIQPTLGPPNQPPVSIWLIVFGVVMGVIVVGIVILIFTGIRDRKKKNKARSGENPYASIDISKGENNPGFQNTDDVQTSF
binder,measurement,value
SARS-CoV [change] (40150-V08B1) (ligand) not shown,binding result,binds
